Experimental data: patent US20230279089A1 (GlaxoSmithKline, published 2023)

Experiments:
[1] = target: T1, Human BMP1 CD+CUB1 truncated antigen (human, UniProt P13497 121-434, limits assumed); experiment: SPR, mAb captured on protein A, HBS-EP
T1 construct: domain: CD+CUB1
T1 sequence (looked up): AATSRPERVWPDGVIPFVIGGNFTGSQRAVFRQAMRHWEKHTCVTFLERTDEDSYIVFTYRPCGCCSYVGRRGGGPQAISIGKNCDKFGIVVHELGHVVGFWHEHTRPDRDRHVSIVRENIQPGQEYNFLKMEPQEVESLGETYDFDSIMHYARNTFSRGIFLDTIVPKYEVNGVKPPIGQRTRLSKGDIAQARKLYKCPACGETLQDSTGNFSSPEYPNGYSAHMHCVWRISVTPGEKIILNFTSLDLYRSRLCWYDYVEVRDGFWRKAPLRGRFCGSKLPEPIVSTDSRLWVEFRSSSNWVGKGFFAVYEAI
Protocol: The 16 lead panel antibodies expressed in HEK cells were evaluated for binding to a truncated version of human BMP containing the catalytic domain and truncated domain (Human BMP1 CD+CUB1 truncated antigen) by SPR using BIACORE T200. HBS-EP+ buffer was used and the experiment run at 25° C. Protein A was immobilised to a CM5 sensor chip via amine coupling. The lead panel antibodies were captured onto protein A surface. Human BMP1 CD+CUB1 was then passed over the captured antibodies at various concentrations.

Human BMP1-1 = target: T2, Human BMP1-1 (human, UniProt P13497-2 121-730, limits assumed); experiment: cell-based or functional assay
T2 sequence (looked up): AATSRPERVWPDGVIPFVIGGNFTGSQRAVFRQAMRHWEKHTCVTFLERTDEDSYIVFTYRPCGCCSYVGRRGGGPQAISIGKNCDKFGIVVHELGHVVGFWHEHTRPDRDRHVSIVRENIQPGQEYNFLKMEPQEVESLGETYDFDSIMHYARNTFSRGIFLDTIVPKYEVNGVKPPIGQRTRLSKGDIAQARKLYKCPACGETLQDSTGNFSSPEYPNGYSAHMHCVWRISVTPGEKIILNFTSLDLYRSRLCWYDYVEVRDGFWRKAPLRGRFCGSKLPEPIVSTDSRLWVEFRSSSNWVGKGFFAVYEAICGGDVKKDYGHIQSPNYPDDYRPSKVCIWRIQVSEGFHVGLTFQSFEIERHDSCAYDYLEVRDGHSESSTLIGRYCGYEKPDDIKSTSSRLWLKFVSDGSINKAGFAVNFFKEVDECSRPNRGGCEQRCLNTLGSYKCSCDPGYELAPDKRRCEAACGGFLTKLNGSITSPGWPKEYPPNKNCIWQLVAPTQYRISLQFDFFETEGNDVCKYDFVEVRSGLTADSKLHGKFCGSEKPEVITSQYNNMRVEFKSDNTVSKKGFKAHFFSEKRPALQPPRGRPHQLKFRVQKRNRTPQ

Mouse TLL1 = target: T3, Mouse TLL1 (mouse, UniProt Q62381 148-1013, limits assumed); experiment: cell-based or functional assay
T3 sequence (looked up): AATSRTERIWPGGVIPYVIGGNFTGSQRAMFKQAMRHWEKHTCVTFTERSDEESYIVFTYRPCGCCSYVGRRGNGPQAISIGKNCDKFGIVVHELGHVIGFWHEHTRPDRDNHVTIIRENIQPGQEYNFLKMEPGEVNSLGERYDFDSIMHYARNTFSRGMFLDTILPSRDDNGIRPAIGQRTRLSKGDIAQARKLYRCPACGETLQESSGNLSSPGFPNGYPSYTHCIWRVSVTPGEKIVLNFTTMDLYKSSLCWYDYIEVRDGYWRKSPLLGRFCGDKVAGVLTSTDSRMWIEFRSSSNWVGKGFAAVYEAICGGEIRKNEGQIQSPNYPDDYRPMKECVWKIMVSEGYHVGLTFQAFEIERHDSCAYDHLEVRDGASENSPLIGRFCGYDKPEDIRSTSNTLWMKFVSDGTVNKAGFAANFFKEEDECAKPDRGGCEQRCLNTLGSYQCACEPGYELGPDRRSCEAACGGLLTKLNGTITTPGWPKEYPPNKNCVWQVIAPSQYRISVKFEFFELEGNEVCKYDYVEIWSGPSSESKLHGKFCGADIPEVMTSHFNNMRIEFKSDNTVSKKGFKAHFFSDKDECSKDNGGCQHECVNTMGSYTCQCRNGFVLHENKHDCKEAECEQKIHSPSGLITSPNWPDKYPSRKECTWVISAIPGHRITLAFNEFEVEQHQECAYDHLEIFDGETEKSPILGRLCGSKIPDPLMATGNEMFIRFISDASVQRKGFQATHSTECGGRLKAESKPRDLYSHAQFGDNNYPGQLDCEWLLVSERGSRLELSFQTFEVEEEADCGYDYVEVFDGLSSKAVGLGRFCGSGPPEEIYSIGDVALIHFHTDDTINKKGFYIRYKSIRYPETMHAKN

B1: 13Y039-127G03-2890 (antibody, human IgG1, kappa, V domains shown)
VH: QVQLVQSGAEVKKPGSSVKVSCKASGGTFSSYAISWVRQAPGQGLEWMGGIIPVFGSAYYAQKFQGRVTITADESTSTAYMELSSLRSEDTAVYYCAGEGRAYYGSESYDDSDYMDVWGKGTTVTVSS
VL: DIQMTQSPSSLSASVGDRVTITCQASQDISNYLNWYQQKPGKAPKLLIYDASNLETGVPSRFSGSGSGTDFTFTISSLQPEDIATYYCQQADIFPLTFGGGTKVEIKR
notes: Fully human IgG1 LAGA, kappa; HEK expressed
For B1, the Kd [1] was 0.3 nM, the “IC50, FRET enzyme activity, 62.5 pM huBMP1” value (“IC50 … 62.5 pM huBMP1” for short) (Human BMP1-1) was 0.4 nM and the “IC50, FRET enzyme activity, 800 pM biotinylated mTLL-1” value (“IC50 … 800 pM biotinylated mTLL-1” below) (Mouse TLL1) was 0.88 nM.

B2: 13Y039-152B02-2940 (antibody, human IgG1, kappa, V domains shown)
VH: QVQLVQSGAEVKKPGSSVKVSCKASGGTFSSDAISWVRQAPGQGLEWMGGIITNFGTATYAQKFQGRVTITADESTSTAYMELSSLRSEDTAVYYCARDVGVQLVYHGAFDIWGQGTMVTVSS
VL: DIQMTQSPSSLSASVGDRVTITCQASQDISNYLNWYQQKPGKAPKLLIYDASNLATGVPSRFSGSGSGTDFTFTISSLQPEDIATYYCQQDDYLPITFGGGTKVEIKR
notes: as for B1
For B2, the Kd [1] was 1.9 nM, the “IC50 … 62.5 pM huBMP1” value (Human BMP1-1) was 0.13 nM and the “IC50 … 800 pM biotinylated mTLL-1” value (Mouse TLL1) was 0.1 nM.

B3: 13Y039-152B02-2935 (antibody, human IgG1, kappa, V domains shown)
VH: QVQLVQSGAEVKKPGSSVKVSCKASGGTFSESAISWVRQAPGQGLEWMGGIIPTFDTTNYAQKFQGRVTITADESTSTAYMELSSLRSEDTAVYYCARDVGVQLVYHGAFDIWGQGTMVTVSS
VL: DIQMTQSPSSLSASVGDRVTITCQASQDISNYLNWYQQKPGKAPKLLIYDASNLATGVPSRFSGSGSGTDFTFTISSLQPEDIATYYCQQDDYLPITFGGGTKVEIKR
notes: as for B1
In the case of B3, the Kd [1] is reported as 0.8 nM, the “IC50 … 62.5 pM huBMP1” value (Human BMP1-1) is reported as 0.25 nM and the “IC50 … 800 pM biotinylated mTLL-1” value (Mouse TLL1) is reported as 70 pM.

B4: 13Y039-152B02-2948 (antibody, human IgG1, kappa, V domains shown)
VH: QVQLVQSGAEVKKPGSSVKVSCKASGGTFSDFAISWVRQAPGQGLEWMGGIIPIYGTASYAQKFLGRVTITADESTSTAYMELSSLRSEDTAVYYCARDVGVQLVYHGAFDIWGQGTMVTVSS
VL: DIQMTQSPSSLSASVGDRVTITCQASQDISNYLNWYQQKPGKAPKLLIYDASNLATGVPSRFSGSGSGTDFTFTISSLQPEDIATYYCQQDDYLPITFGGGTKVEIKR
notes: as for B1
B4 was tested, and the Kd [1] was 1.4 nM, the “IC50 … 62.5 pM huBMP1” value (Human BMP1-1) was 0.31 nM and the “IC50 … 800 pM biotinylated mTLL-1” value (Mouse TLL1) was 0.11 nM.

B5: 13Y039-4B06-4324 (antibody, human IgG1, kappa, V domains shown)
VH: QVQLVQSGAEVKKPGASVKVSCKASGYTFRGYYMSWVRQAPGQGLEWMGWINPMSGETNYAQKFQGRVTMTRDTSISTAYMELSRLRSDDTAVYYCARDTGELDGMNWYFDLWGRGTLVTVSS
VL: EIVLTQSPATLSLSPGERATLSCRASQSVSSYLAWYQQKPGQAPRLLIYDASNRATGIPARFSGSGSGTDFTLTISSLEPEDFAVYYCQQSDSWPPTFGGGTKVEIKR
notes: as for B1
With B5 the Kd [1] was 3.9 nM, the “IC50 … 62.5 pM huBMP1” value (Human BMP1-1) was 20 pM and the “IC50 … 800 pM biotinylated mTLL-1” value (Mouse TLL1) was 0.1 nM.

B6: 13Y039-4B06-4327 (antibody, human IgG1, kappa, V domains shown)
VH: QVQLVQSGAEVKKPGASVKVSCKASGYTFPGYYMTWVRQAPGQGLEWMGNINPNSGWTNYAQKFQGRVTMTRDTSISTAYMELSRLRSDDTAVYYCARDTGELDGMNWYFDLWGRGTLVTVSS
VL: EIVLTQSPATLSLSPGERATLSCRASQSVSSYLAWYQQKPGQAPRLLIYDASNRATGIPARFSGSGSGTDFTLTISSLEPEDFAVYYCQQSDSWPPTFGGGTKVEIKR
notes: as for B1
With B6 the Kd [1] was 1.5 nM, the “IC50 … 62.5 pM huBMP1” value (Human BMP1-1) was 10 pM and the “IC50 … 800 pM biotinylated mTLL-1” value (Mouse TLL1) was 40 pM.

B7: 13Y039-4B06-4328 (antibody, human IgG1, kappa, V domains shown)
VH: QVQLVQSGAEVKKPGASVKVSCKASGYTFHGYYMNWVRQAPGQGLEWMGWINPLSGETNYAQKFQGRVTMTRDTSISTAYMELSRLRSDDTAVYYCARDTGELDGMNWYFDLWGRGTLVTVSS
VL: EIVLTQSPATLSLSPGERATLSCRASQSVSSYLAWYQQKPGQAPRLLIYDASNRATGIPARFSGSGSGTDFTLTISSLEPEDFAVYYCQQSDSWPPTFGGGTKVEIKR
notes: as for B1
For B7, the Kd [1] was 2.8 nM, the “IC50 … 62.5 pM huBMP1” value (Human BMP1-1) was 30 pM and the “IC50 … 800 pM biotinylated mTLL-1” value (Mouse TLL1) was 70 pM.

B8: 13Y039-4B06-4351 (antibody, human IgG1, kappa, V domains shown)
VH: QVQLVQSGAEVKKPGASVKVSCKASGYTFSGYYMSWVRQAPGQGLEWMGWINPNSGETFYAQKFQGRVTMTRDTSISTAYMELSRLRSDDTAVYYCARDTGELDGMNWYFDLWGRGTLVTVSS
VL: EIVLTQSPATLSLSPGERATLSCRASQSVSSYLAWYQQKPGQAPRLLIYDASNRATGIPARFSGSGSGTDFTLTISSLEPEDFAVYYCQQSDSWPPTFGGGTKVEIKR
notes: as for B1
With B8 the Kd [1] was 1.9 nM, the “IC50 … 62.5 pM huBMP1” value (Human BMP1-1) was 30 pM and the “IC50 … 800 pM biotinylated mTLL-1” value (Mouse TLL1) was 0.14 nM.

B9: 13Y039-4B06-4364 (antibody, human IgG1, kappa, V domains shown)
VH: QVQLVQSGAEVKKPGASVKVSCKASGYTFRGYYMSWVRQAPGQGLEWMGWINPNSGETIYAQKFQGRVTMTRDTSISTAYMELSRLRSDDTAVYYCARDTGELDGMNWYFDLWGRGTLVTVSS
VL: EIVLTQSPATLSLSPGERATLSCRASQSVSSYLAWYQQKPGQAPRLLIYDASNRATGIPARFSGSGSGTDFTLTISSLEPEDFAVYYCQQSDSWPPTFGGGTKVEIKR
notes: as for B1
For B9, the Kd [1] was 2.4 nM, the “IC50 … 62.5 pM huBMP1” value (Human BMP1-1) was 20 pM and the “IC50 … 800 pM biotinylated mTLL-1” value (Mouse TLL1) was 0.13 nM.

B10: 13Y039-4B06-4325 (antibody, human IgG1, kappa, V domains shown)
VH: QVQLVQSGAEVKKPGASVKVSCKASGYTFWGYYMSWVRQAPGQGLEWMGWINPQSGETNYAQKFQGRVTMTRDTSISTAYMELSRLRSDDTAVYYCARDTGELDGMNWYFDLWGRGTLVTVSS
VL: EIVLTQSPATLSLSPGERATLSCRASQSVSSYLAWYQQKPGQAPRLLIYDASNRATGIPARFSGSGSGTDFTLTISSLEPEDFAVYYCQQSDSWPPTFGGGTKVEIKR
notes: as for B1
B10 was tested, and the Kd [1] was 2.8 nM, the “IC50 … 62.5 pM huBMP1” value (Human BMP1-1) was 30 pM and the “IC50 … 800 pM biotinylated mTLL-1” value (Mouse TLL1) was 70 pM.

B11: 13Y039-4B06-4348 (antibody, human IgG1, kappa, V domains shown)
VH: QVQLVQSGAEVKKPGASVKVSCKASGYTFGGYYMSWVRQAPGQGLEWMGWINPNSGETYYAQKFQGRVTMTRDTSISTAYMELSRLRSDDTAVYYCARDTGELDGMNWYFDLWGRGTLVTVSS
VL: EIVLTQSPATLSLSPGERATLSCRASQSVSSYLAWYQQKPGQAPRLLIYDASNRATGIPARFSGSGSGTDFTLTISSLEPEDFAVYYCQQSDSWPPTFGGGTKVEIKR
notes: as for B1
In the case of B11, the Kd [1] is reported as 1.5 nM, the “IC50 … 62.5 pM huBMP1” value (Human BMP1-1) is reported as 20 pM and the “IC50 … 800 pM biotinylated mTLL-1” value (Mouse TLL1) is reported as 0.12 nM.
